# Assay results: publication doi:10.1101/2025.11.14.688546, “Nuclear-import receptors remodel the dilute phase to suppress phase transitions of RNA-binding proteins with prion-like domains” (bioRxiv, 2025)
# Where two headings read alike, the source gives them in different places.
# B1: FUS^P525L (natural protein, UniProt P35637 1-526, looked up)
# chain: MASNDYTQQATQSYGAYPTQPGQGYSQQSSQPYGQQSYSGYSQSTDTSGYGQSSYSSYGQSQNTGYGTQSTPQGYGSTGGYGSSQSSQSSYGQQSSYPGYGQQPAPSSTSGSYGSSSQSSSYGQPQSGSYSQQPSYGGQQQSYGQQQSYNPPQGYGQQNQYNSSSGGGGGGGGGGNYGQDQSSMSSGGGSGGGYGNQDQSGGGGSGGYGQQDRGGRGRGGSGGGGGGGGGGYNRSSGGYEPRGRGGGRGGRGGMGGSDRGGFNKFGGPRDQGSRHDSEQDNSDNNTIFVQGLGENVTIESVADYFKQIGIIKTNKKTGQPMINLYTDRETGKLKGEATVSFDDPPSAKAAIDWFDGKEFSGNPIKVSFATRRADFNRGGGNGRGGRGRGGPMGRGGYGGGGSGGGGRGGFPSGGGGGGGQQRAGDWKCPNPTCENMNFSWRNECNQCKAPKPDGPGGGPGGSHMGGNYGDDRRGGRGGYDRGGYRGRGGDRGGFRGGRGGGDRGGFGPGKMDSRGEHRQDRRERLY
# notes: Production of the variant is not described on its own; also called ALS-linked FUS variant P525L; not shown: MBP, N-terminal, cleaved
# Key:
# Kapβ2 (Homo sapiens) [1] = target: Kapβ2 (Homo sapiens) (UniProt Q92973); experiment: fluorescence anisotropy; conditions: cited from earlier work
# Chain of Kapβ2 (Homo sapiens) (Q92973 whole entry): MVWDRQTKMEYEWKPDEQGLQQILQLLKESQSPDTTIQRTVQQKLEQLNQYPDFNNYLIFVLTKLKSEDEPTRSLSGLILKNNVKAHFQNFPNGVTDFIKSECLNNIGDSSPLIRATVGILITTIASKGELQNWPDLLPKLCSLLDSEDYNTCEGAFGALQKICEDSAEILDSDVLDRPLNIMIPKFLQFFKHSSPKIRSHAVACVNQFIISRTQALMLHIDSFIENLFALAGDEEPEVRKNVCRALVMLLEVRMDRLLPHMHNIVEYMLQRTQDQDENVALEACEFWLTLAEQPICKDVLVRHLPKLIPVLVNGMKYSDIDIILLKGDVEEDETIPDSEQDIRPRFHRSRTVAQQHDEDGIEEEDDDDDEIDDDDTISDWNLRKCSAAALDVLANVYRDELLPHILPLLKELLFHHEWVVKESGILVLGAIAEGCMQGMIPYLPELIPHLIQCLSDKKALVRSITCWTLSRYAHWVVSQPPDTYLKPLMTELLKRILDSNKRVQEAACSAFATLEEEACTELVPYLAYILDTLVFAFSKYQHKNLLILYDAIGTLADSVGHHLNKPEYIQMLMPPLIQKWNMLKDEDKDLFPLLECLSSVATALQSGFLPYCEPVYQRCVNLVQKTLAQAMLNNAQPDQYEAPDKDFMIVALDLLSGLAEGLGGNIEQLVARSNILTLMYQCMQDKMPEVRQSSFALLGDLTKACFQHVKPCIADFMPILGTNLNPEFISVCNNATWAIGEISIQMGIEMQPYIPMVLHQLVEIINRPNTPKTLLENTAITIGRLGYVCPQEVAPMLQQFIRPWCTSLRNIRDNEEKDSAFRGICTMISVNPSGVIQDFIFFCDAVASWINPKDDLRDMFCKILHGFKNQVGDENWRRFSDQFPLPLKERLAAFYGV
# Kapβ2 (Homo sapiens) [2] = target: Kapβ2 (Homo sapiens) (UniProt Q92973); conditions: cited from earlier work
# hnRNPA1 = hnRNPA1 (UniProt P09651)
# Chain of hnRNPA1 (P09651 whole entry): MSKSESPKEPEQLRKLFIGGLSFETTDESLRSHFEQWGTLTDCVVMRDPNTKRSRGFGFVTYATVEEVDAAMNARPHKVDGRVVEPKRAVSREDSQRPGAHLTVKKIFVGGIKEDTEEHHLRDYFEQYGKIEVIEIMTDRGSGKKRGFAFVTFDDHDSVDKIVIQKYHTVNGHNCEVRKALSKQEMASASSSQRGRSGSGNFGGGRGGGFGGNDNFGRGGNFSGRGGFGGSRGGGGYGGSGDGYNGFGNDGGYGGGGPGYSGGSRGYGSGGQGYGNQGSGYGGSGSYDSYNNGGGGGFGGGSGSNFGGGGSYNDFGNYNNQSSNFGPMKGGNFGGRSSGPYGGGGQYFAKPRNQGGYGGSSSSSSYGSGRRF
# [3] = target: the molecule itself; experiment: microfluidic resistive pulse sensing (MRPS); increasing concentrations of the RNA-binding protein alone; MBP cleaved in situ by TEV (0.04 mg/ml), 1.5–2 h at room temperature; C-400 and C-2000 cartridges (70–2000 nm); FUS: 20 mM HEPES pH 7.4, 207 mM NaCl, 1.3 mM DTT, 0.7 mM EDTA, 3.3 % glycerol; hnRNPA1 and hnRNPA2: same with 66.7 mM NaCl
molecule,measurement,setting,value
FUS (from UniProt P35637),Kd,Kapβ2 (Homo sapiens) [1],43 nM
same,Kd,Kapβ2 (Homo sapiens) [2],50 nM
Karyopherin-β2 (from UniProt Q92973 1-898) (natural protein),"saturation concentration (csat) of hnRNPA1 for condensate formation, brightfield microscopy; ~4 μM without Kapβ2, measured with 2 μM Kapβ2",hnRNPA1,6 µM
B1,binding result,[3],binds
